{
  "source": "paper PMC4931565",
  "about": "“Higher‐order assemblies of oligomeric cargo receptor complexes form the membrane scaffold of the Cvt vesicle” (EMBO Reports, 2016)",
  "proteins": {"B1": {"name": "Saccharomyces cerevisiae Atg19 (MBP tag cleaved) (natural protein, S. cerevisiae, UniProt P35193 1-415, looked up)", "chain": "MNNSKTNQQMNTSMGYPLTVYDECNKFQLIVPTLDANIMLWCIGQLSLLNDSNGCKHLFWQPNDKSNVRILLNNYDYGHLFKYLQCQRKCSVYIGEGTLKKYNLTISTSFDNFLDLTPSEEKESLCREDAHEDPVSPKAGSEEEISPNSTSNVVVSRECLDNFMKQLLKLEESLNKLELEQKVTNKEPNHRISGTIDIPEDRSELVNFFTELKTVKQLEDVFQRYHDYERLSQECDSKTEIASDHSKKETKIEVEPPNERSLQITMNQRDNSLYFQLFNNTNSVLAGNCKLKFTDAGDKPTTQIIDMGPHEIGIKEYKEYRYFPYALDLEAGSTIEIENQYGEVIFLGKYGSSPMINLRPPSRLSAESLQASQEPFYSFQIDTLPELDDSSIISTSISLSYDGDDNEKALTWEEL", "notes": "autophagy receptor Atg19 of S. cerevisiae, from cDNA; also called trimeric Atg19; source: Sf21, purified (amylose beads, TEV cleavage, DEAE ion exchange); or co-purified with prApe1 (amylose beads, TEV cleavage, Superose 6); not shown: MBP, N-terminal, cleaved"}},
  "biological_target": "the molecule itself",
  "assay": "SEC-MALS; Atg19 about 2 mg/ml, 50 mM Tris pH 7.5, 150 mM NaCl, 0.5 mM TCEP, Superose 6 increase, room temperature, triplicate",
  "data": [
    {"protein": "B1", "values": [
      {"measurement": "stoichiometry N", "result": 3}
    ]}
  ]
}
